Where a chain is given by its changes, count along the chain named. Names may count otherwise.
T1: CD27 expressed on the cell surface of HT1080_CD27 cells (human, UniProt P26842 20-260)
T1 sequence (looked up): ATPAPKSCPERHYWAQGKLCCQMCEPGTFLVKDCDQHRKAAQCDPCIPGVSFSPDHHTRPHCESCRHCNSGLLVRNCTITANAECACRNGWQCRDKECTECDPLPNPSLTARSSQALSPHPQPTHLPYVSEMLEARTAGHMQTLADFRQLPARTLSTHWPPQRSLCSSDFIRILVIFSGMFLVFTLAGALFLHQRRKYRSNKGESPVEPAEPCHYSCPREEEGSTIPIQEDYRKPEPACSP

T2: CD27 protein (His-tagged, Sino Biological Inc. 10039-H08B1) (human, UniProt P26842 20-192)
T2 construct: bought protein coated on ELISA plates; also called TNFRSF7; not shown: His tag
T2 sequence (looked up): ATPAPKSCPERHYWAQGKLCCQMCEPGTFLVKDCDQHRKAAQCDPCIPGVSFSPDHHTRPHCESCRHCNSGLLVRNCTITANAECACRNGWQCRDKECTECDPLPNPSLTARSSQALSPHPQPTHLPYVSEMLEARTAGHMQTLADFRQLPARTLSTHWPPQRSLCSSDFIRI

B1: P018.S.04.A.E05 (antibody, V domains shown)
VH: QSLEESGGDLVKPGASLTLTCTASGFSFSSDYYMCWVRQAPGKGLEWIACISAGSSGSIYYASWAKGRFTISKTSSTTVTLQMTSLTAADTATYFCAREASDSIYYPIFNLWGPGTLVTVSS
VL: AAVLTQTPSPVSAAVGGTVSISCQSSKSVYNNNALSWFQQKPGQPPKLLIYGASTLPSRVPSRFKGSGSGTQFTLTISDVQSDDAATYYCIGGYSSSSDTNAFGGGTEVVVK
notes: V regions on human Ig constant parts; also called AB27_76
B2: P018.S.09.A.G06 (antibody, V domains shown)
VH: QSVEESGGRLVTPGTPLTLTCTASGFSLSNYHMSWVRQAPGKGLEWIGIIYAGSDSTWYASWAKGRFTISKTSTTVDLKITSPTTEDTATYFCARQPGGGASDTQLDLWGQGTLVTVSS
VL: AAVLTQTASPVSAAVGGTVTINCQSSQNIFDNNQLSWFQHKSGQSPKLLIYRASTLASGVPSRFKGSGSGTQFTLTISDVQSDDAATYYCLGGYSSSSDTVFGGGTEVVVK
notes: V regions on human Ig constant parts; also called AB27_159
B3: P018.S.07.A.D05 (antibody, V domains shown)
VH: QSLEESGGDLVKPEGSLTLTCTASGFSFSSSYWICWVRQAPGKGLEWIGCMITGRGNTYYATWAKGRFTISKTSSTTVTLQMTSLTAADTATYFCARGPGGADPINLWGPGTLVTVSS
VL: DVVMTQTPASVSEPVGGTVTIKCQASQNIYNNLAWYQQKPGQPPKLLIYLASTLASGVPSRFEGSGSGTEFTLTISGVQSDDAATYYCQSTYDGSSYVPNAFGGGTEVVVK
notes: V regions on human Ig constant parts; also called AB27_124
B4: P018.S.08.A.F01 (antibody, V domains shown)
VH: QSVEESGGRLVTPGTPLTLTCTVSGSDISGYALGWVRQAPGKGLEYIGVIAADGNAYYASWAKGRFTISRTSTTVDLKMTSLTTEDTATYFCARGYSSGWGTYGYFDLWGQGTLVTVSS
VL: DIVMTQTPASVSAAVGGTVTIKCQASEDIYSYLAWYQQKPGQPPKLLIYRASTLESGVPSRFKGSGSGTQFTLTISDLESADAATYYCQSYYYSHSTTYSNVFGGGTEVVVK
notes: V regions on human Ig constant parts; also called AB27_140
B5: P018.S.10.A.B02 (antibody, V domains shown)
VH: QSVEESGGRLVTPGGSLTLSCTVNGFSLSSHGVSWVRQAPGKGLEWIGIIYVISGHAYYASWAKGRFTISKTSTTVDLKIASPTTEDTATYFCARGNYGSDSGPNFTRLDLWGQGTLVTVSS
VL: AQVLTQTPSPVSATVGGTLTINCQASQSLYNNDYLAWYQQKPGQPPKLLIYLASTLASGVSSRFKGSGSGTQFTLTISGVQSDDAATYYCQGEFSCSSGDCLAFGGGTEVVVK
notes: V regions on human Ig constant parts; also called AB27_167
B6: P018.S.05.A.E03 (antibody, V domains shown)
VH: QSLEESGGRLVTPGGSLTLTCTVSGIDLSSYAMGWVRQAPGKGLEWIGYITYGGSTYYANWVNGRFTISKTSTMVDLKMTSLTAADTATYFCARLRAPYYYRIYFNLWGPGTLVTVSS
VL: ALVMTQTPSSVEAAVGGTVTIKCQASQNIISALAWYQQKPGQPPKLLIYDASNLESGVPSRFKGSGSGTDFTLTISDLESADAATYYCQGAYDTNINDFGGGTEVVVK
notes: V regions on human Ig constant parts; also called AB27_89
B7: P018.S.05.A.B06 (antibody, V domains shown)
VH: QSVEESGGRLVTPGTPLTLTCTVSGFSLNTYVMSWVRQAPGKGLEWIGYIDYGGAPYYASWAKGRFTISKTSTTVELKITSPTIEDTATYFCARGGYGGYVLVTVLWGPGTLVTVSS
VL: DVVMTQTPASVSEPVGGTVTIKCQASQNIYSSLAWYQQKPGQPPKLLIYQASTLASEVPSRFKGSGSGTEFTLTINDLESADAATYYCQTYYGGSTYGNGFGGGTEVVVE
notes: V regions on human Ig constant parts; also called AB27_84
B8: P018.S.07.A.A02 (antibody, V domains shown)
VH: B7 VH with N29S, T30S
VL: B7 VL with T53R, N76S
notes: V regions on human Ig constant parts; also called AB27_113
B9: P018.S.05.A.A06 (antibody, V domains shown)
VH: QSLEESGGRLVTPGTPLTLTCTVSGIDLNNNAMSWVRQAPGEGLEWIGIISTAGTTTYASWTKGRFTISKTSTTVDLKITSPTTEDTATYFCARAAYFSYGYINLWGQGTLVTVSS
VL: DIVMTQTPASVEAAVGGTVTIKCQASQNIGNALAWYQQKSGQPPKLLIYSASTLASGVPSRFKGSGSGTEFTLTISDLESADATTYFCQSYVYSDGNVFGGGTEVVVK
notes: V regions on human Ig constant parts; also called AB27_82
B10: P018.S.09.A.F05 (antibody, V domains shown)
VH: QEQLEESGGDLVKPGASLTLTCTASGFSFSSNYCMCWVRQAPGKGLEWIACICAGASGATYYASWAKGRFTVSKTSSTTVTLQMTSLTGADTATYFCARYDNSGWGDFKLWGPGTLVTVSS
VL: DIVMTQTPASVSEPVGGTVTINCQASQNIGTYLAWYQQKPGQRPKLLIYAASYLASGVPSRFKGSGSGTEVALTISDLESADAATYYCQNTYYDSPVVGGAFGGGTEVVVK
notes: V regions on human Ig constant parts; also called AB27_157
B11: P018.S.01.A.E02 (antibody, V domains shown)
VH: QSVEESGGRLVTPGTPLTLTCTASGFSLSNYYMSWVRQAPGKGLEWIGIISTYGDTYYATWAKGRFTISKTSTTVDLKITSPTTEDTATYFCARGSSDTYYTYFNLWGPGTLVTVSS
VL: DIVMTQTPASVEAAVGGTVTIKCQASQKIYNNLAWYQQKPGQPPKLLIYSASTLASGVPSRFKGSGSGTEFTLTISDLESADAATYYCQSYGVSANTISYGLPFGGGTEVVVK
notes: V regions on human Ig constant parts; also called AB27_14
B12: P018.S.01.A.A06 (antibody, V domains shown)
VH: QSVEESGGRLVTPGTPLTLTCTVSGIDLSTYAMSWVRQAPGKGLEWIGIIYGSGYTYYASWAKGRATISKTSSTTVDLKITSPTTEDTATYFCASGYGISSGNFLHFNLWGQGTLVTVSS
VL: AYDMTQTPASVEVAVGGTVTIKCQASESIYFNLAWYQQKPGQRPKLLIYRASTLASGVSSRFKGSGSGTQFTLTISGVESADAATYYCQQGYDSSHIDNAFGGGTEVVVT
notes: V regions on human Ig constant parts; also called AB27_3
B13: P018.S.03.A.D04 (antibody, V domains shown)
VH: QEHLEESGGGLVQPGGTLTLTCKASGIDFSSSYYMCWVRQAPGKGLERLACTYNRDGSTYYASWAKGRFTISKTSSTTVTLQMTSLTVADTATYFCARDDGYPGSGYVLNLWGPGTLVTVSS
VL: DVVMTQTPASVEAAVGGTVTIRCQASQSVSNYFSWYQQKPGQPPKLLIYGASNLESGVPSRFKGSGSGTEFTLTISGVQSDDAATYYCQGGYYSSNTDNNSFGGGTEVVVK
notes: V regions on human Ig constant parts; also called AB27_49
B14: P018.S.05.A.D03 (antibody, V domains shown)
VH: QEQLEESGGDLVQPEGSLTLTCTVSGFSFNSNYWICWVRQAPGKGLEWIACIMTGDGSTYYATWAKGRFTISKTSSTTVTLQMTSLTAADTATYFCARGYDGIHGGDNYGHVFNLWGPGTLVTVSS
VL: AFELTQTPFSVSAVVGGTVTINCQASENIYSLLAWYQQKPGQPPKLLIYRASTLASGVPSRFKGSGSGTQFTLIISDLESGDAATYYCQSYYINSSNSFGGGTEVVVK
notes: V regions on human Ig constant parts; also called AB27_86
B15: P018.S.03.A.D05 (antibody, V domains shown)
VH: QSLEESGGRLVTPGTPLTLTCTASGFSLSSYYITWVRQAPGEGLEWIGTISTAGNTYFASWANGRFTISRTSTTVDLKMTSPTTEDTATYFCARDGAGDSNYYRNLWGQGTLVTVSS
VL: DIVLTQTPASVEAAVGGTVTIKCQASQSIDRFLAWYQQKPGQPPKLLIYDASDLASGVPSRFSGSGYGTEFTLTISGVQSEDAATYYCQQGYYISDIHNVFGGGTEVVVK
notes: V regions on human Ig constant parts; also called AB27_50

Molecular target: T1, CD27 expressed on the cell surface of …
Test: cell-based or functional assay
Also: test concentration or dose not given here.

Binder	Functional assay Cross-linked by F(ab′)2 fragment IL-8 [abs. corr.]	Functional assay IL-8 [abs. corr.]
B1	1.77	0.747
B2	1.34	0.467
B3	1.64	-0.032
B4	1.11	0.211
B5	1.91	0.47
B6	1.92	0.208
B7	1.7	0.22
B8	1.85	0.059
B9	1.58	0.324
B10	1.68	0.158
B11	1.17	0.276
B12	1.92	0.566
B13	1.23	0.513
B14	1.28	0.1
B15	1.5	0.5

Molecular target: T1, CD27 expressed on the cell surface of …
Test: HT1080_CD27 cells, imaging

Binder	Cellular binding assay [RFU]
B1	319
B2	338
B3	329
B4	395
B5	249
B6	322
B7	309
B8	314
B9	374
B10	400
B11	360
B12	287
B13	270
B14	321
B15	324

Molecular target: T2, CD27 protein (His-tagged, Sino …)
Test: ELISA, coated His-tagged CD27

Binder	ELISA [abs. corr.]
B1	3.11
B2	3.12
B3	3.08
B4	3.1
B5	3.11
B6	3.07
B7	3.1
B8	3.08
B9	3.11
B10	3.12
B11	3.13
B12	3.09
B13	3.1
B14	3.1
B15	3.12
